The target in test [1] is T1, truncated BRCA1 (1-509) (Homo sapiens (Human), UniProt P38398 1-509).
T1 construct: Stably expressed in a 293-derived cell line; keeps the nuclear localization signal and the Ring domain; also called BRCA1 truncation
Description: affinity purification of the truncated BRCA1 complex from a stable 293-derived cell line (co-purification; may be indirect).

The target of test [2] is T2, Jab1/CSN5 subunit of signalosome, recombinant (UniProt Q92905 1-334, limits assumed).
T2 construct: Produced in recombinant form as a control JAMM domain protein; the construct is not described
Nature of the test: protein-protein interaction assay with GST-BRCA1 fragments. As for the experimental part:
(§1) Recombinant BRCA1 and BARD1 was purified as described (Chen, et al. (2002) J. Biol. Chem. 277:22085-22092). […] Gluthatione-sepharose beads (Pharmacia, Peapack, N.J.), previously equilibrated in binding buffer, were added to the samples and inverted for an additionnal 2 hours at 4° C. Beads were collected by centrifugation at 2000×g, 30 seconds, washed several times in binding buffer containing 500 mM KCl and 0.1% NP40 and resuspended in 2× SDS loading buffer. Proteins were resolved by SDS-PAGE and western blot analysis was performed using anti-FLAG® antibodies (SIGMA, St. Louis, Mo.).

For test [3], the target named is T3, (His)6-FLAG®-BRCC36 protein (Homo sapiens, UniProt P46736 1-316).
T3 construct: Produced in bacteria and purified; also called recombinant BRCC36; C6.1A; not shown: (His)6 and FLAG tags
Description: GST pull-down: 5 µg (His)6-FLAG-BRCC36 with GST-BRCA1 fragment, anti-FLAG western blot. How it is done: as §1
On the technique in general: Immunoblotting shows a protein as a band on a membrane.

T2 sequence (Q92905 whole entry, the tested form may be a part): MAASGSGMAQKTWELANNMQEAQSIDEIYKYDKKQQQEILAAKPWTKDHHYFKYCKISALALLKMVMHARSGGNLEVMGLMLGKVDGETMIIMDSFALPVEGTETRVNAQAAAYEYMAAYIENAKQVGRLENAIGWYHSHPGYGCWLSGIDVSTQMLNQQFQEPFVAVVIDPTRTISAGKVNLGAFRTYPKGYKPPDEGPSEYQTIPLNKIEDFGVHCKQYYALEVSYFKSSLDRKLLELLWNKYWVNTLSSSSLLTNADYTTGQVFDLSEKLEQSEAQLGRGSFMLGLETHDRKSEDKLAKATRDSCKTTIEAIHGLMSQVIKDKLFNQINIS
T3 sequence (P46736 whole entry): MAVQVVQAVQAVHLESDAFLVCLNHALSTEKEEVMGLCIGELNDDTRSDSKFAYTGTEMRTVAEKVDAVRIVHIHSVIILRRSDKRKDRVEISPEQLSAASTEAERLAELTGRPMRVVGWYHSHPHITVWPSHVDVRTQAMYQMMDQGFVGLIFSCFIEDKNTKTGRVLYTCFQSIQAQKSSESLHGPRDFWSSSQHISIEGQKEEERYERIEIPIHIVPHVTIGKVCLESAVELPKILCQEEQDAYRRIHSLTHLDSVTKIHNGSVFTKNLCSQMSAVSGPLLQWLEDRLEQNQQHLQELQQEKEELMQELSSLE

B1: BRE (other)
chain: MSPEVALNRISPMLSPFISSVVRNGKVGLDATNCLRITDLKSGCTSLTPGPNCDRFKLHIPYAGETLKWDIIFNAQYPELPPDFIFGEDAEFLPDPSALQNLASWNPSNPECLLLVVKELVQQYHQFQCSRLRESSRLMFEYQTLLEEPQYGENMEIYAGKKNNWTGEFSARFLLKLPVDFSNIPTYLLKDVNEDPGEDVALLSVSFEDTEATQVYPKLYLSPRIEHALGGSSALHIPAFPGGGCLIDYVPQVCHLLTNKVQYVIQGYHKRREYIAAFLSHFGTGVVEYDAEGFTKLTLLLMWKDFCFLVHIDLPLFFPRDQPTLTFQSVYHFTNSGQLYSQAQKNYPYSPRWDGNEMAKRAKGCQGSRDACSPWEQVLAFAVAKTGCKLLQPQRNWPSSRGPPWRASEGERTAQ
notes: also called BRCC45; BRCC45/BRE
As to B1, in test [1], the binding result is recorded as “no binding”.

B2: GST-BRCA1 fragment F2 (BRCA1 residues 260-553) (other)
chain: KYQGSSVSNLHVEPCGTNTHASSLQHENSSLLLTKDRMNVEKAEFCNKSKQPGLARSQHNRWAGSKETCNDRRTPSTEKKVDLNADPLCERKEWNKQKLPCSENPRDTEDVPWITLNSSIQKVNEWFSRSDELLGSDDSHDGESESNAKVADVLDVLNEVDEYSGSSEKIDLLASDPHEALICKSERVHSKSVESNIEDKIFGKTYRKKASLPNLSHVTENLIIGAFVTEPQIIQERPLTNKLKRKRRPTSGLHPEDFIKKADLAVQKTPEMINQGTNQTEQNGQVMNITNSGH
notes: Produced in bacteria; also called fragment 2; not shown: glutathione S-transferase (GST) fusion tag
Turning to B2, the binding result in test [2] and in test [3] was “no binding” throughout.

B3: GST-BRCA1 fragment F1 (BRCA1 residues 1-324) (other)
chain: MDLSALRVEEVQNVINAMQKILECPICLELIKEPVSTKCDHIFCKFCMLKLLNQKKGPSQCPLCKNDITKRSLQESTRFSQLVEELLKIICAFQLDTGLEYANSYNFAKKENNSPEHLKDEVSIIQSMGYRNRAKRLLQSEPENPSLQETSLSVQLSNLGTVRTLRTKQRIQPQKTSVYIELGSDSSEDTVNKATYCSVGDQELLQITPQGTRDEISLDSAKKAACEFSETDVTNTEHHQPSNNDLNTTEKRAAERHPEKYQGSSVSNLHVEPCGTNTHASSLQHENSSLLLTKDRMNVEKAEFCNKSKQPGLARSQHNRWAGS
notes: Produced in bacteria; also called fragment 1; not shown: glutathione S-transferase (GST) fusion tag
Take B3: the binding result in test [2] was “no binding”.

B4: GST-BRCA1 fragment F3 (BRCA1 residues 502-802) (other)
chain: LKRKRRPTSGLHPEDFIKKADLAVQKTPEMINQGTNQTEQNGQVMNITNSGHENKTKGDSIQNEKNPNPIESLEKESAFKTKAEPISSSISNMELELNIHNSKAPKKNRLRRKSSTRHIHALELVVSRNLSPPNCTELQIDSCSSSEEIKKKKYNQMPVRHSRNLQLMEGKEPATGAKKSNKPNEQTSKRHDSDTFPELKLTNAPGSFTKCSNTSELKEFVNPSLPREEKEEKLETVKVSNNAEDPKDLMLSGERVLQTERSVESSSISLVPGTDYGTQESISLLEVSTLGKAKTEPNKCV
notes: Produced in bacteria; also called fragment 3; not shown: glutathione S-transferase (GST) fusion tag
On to B4, for which, in test [2], the binding result is “no binding”.

B5: GST-BRCA1 fragment F5 (BRCA1 residues 1005-1313) (other)
chain: EHSMSPEREMGNENIPSTVSTISRNNIRENVFKEASSSNINEVGSSTNEVGSSINEIGSSDENIQAELGRNRGPKLNAMLRLGVLQPEVYKQSLPGSNCKHPEIKKQEYEEVVQTVNTDFSPYLISDNLEQPMGSSHASQVCSETPDDLLDDGEIKEDTSFAENDIKESSAVFSKSVQKGELSRSPSPFTHTHLAQGYRRGAKKLESSEENLSSEDEELPCFQHLLFGKVNNIPSQSTRHSTVATECLSKNTEENLLSLKNSLNDCSNQVILAKASQEHHLSEETKCSASLFSSQCSELEDLTANTNTQ
notes: Produced in bacteria; also called fragment 5; not shown: glutathione S-transferase (GST) fusion tag
Take B5: the binding result in test [2] and in test [3] was “no binding” throughout.

B6: GST-BRCA1 fragment F4 (BRCA1 residues 758-1064) (other)
chain: LQTERSVESSSISLVPGTDYGTQESISLLEVSTLGKAKTEPNKCVSQCAAFENPKGLIHGCSKDNRNDTEGFKYPLGHEVNHSRETSIEMEESELDAQYLQNTFKVSKRQSFAPFSNPGNAEEECATFSAHSGSLKKQSPKVTFECEQKEENQGKNESNIKPVQTVNITAGFPVVGQKDKPVDNAKCSIKGGSRFCLSSQFRGNETGLITPNKHGLLQNPYRIPPLFPIKSFVKTKCKKNLLEENFEEHSMSPEREMGNENIPSTVSTISRNNIRENVFKEASSSNINEVGSSTNEVGSSINEIGSS
notes: Produced in bacteria; also called fragment 4; not shown: glutathione S-transferase (GST) fusion tag
Turning to B6, the binding result in test [2] was “no binding”.
